Results on one molecule are retold here after US20240228562A1, “NOVEL LIPOCALIN MUTEINS SPECIFIC FOR CONNECTIVE TISSUE GROWTH FACTOR (CTGF)” (PIERIS PHARMACEUTICALS GMBH, priority 2021, published 2024).

Data set [1] can be described thus: Thermal stability assessment by nanoDSC. It is filed as physicochemical. Conditions: 1 mg/mL in PBS, scan 25-100° C. at 1° C./min. An outline of the steps: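 CTGF-specific lipocalin muteins at 1 mg/mL in PBS scanned from 25 to 100° C at 1° C/min by capillary nano-DSC. Where several transitions occur, the Tm of the major unfolding event is reported, along with onset temperature. Some muteins were expressed in E. coli, others in CHO cells.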

In data set [2] the target is T1, human CTGF (Homo sapiens, UniProt P29279).
T1 construct: purchased Creative Biomart
The data set can be described thus: SPR binding kinetics and affinity, human CTGF. Conditions: 25° C., 1:1 binding model. In short, it runs like this:
(§1)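 Biacore SPR at 25 °C; CTGF either Fc-captured via anti-human IgG (HBS-EP+) or amine-coupled to CM5 (300–1100 RU). Muteins injected 180 s contact, 900–3600 s dissociation, 30 μL/min.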
For orientation: SPR reads the build-up and loss of mass on a sensor chip optically.

In data set [3] the target is T2, human CTGF (Homo sapiens, UniProt P29279, H83D).
T2 construct: purchased Creative Biomart
The data set can be described thus: SPR binding kinetics and affinity, human CTGF. Conditions: 25° C., 1:1 binding model. An outline of the steps:
as §1

The subject of a further data set is cynomolgus CTGF. The experiment in a line: SPR binding kinetics and affinity, cynomolgus CTGF. Conditions: 25° C., 1:1 binding model. The procedure: (§2) Surface plasmon resonance (SPR) was used to measure binding kinetics and affinity of the representative lipocalin muteins disclosed herein.
(§3) The binding of exemplary lipocalin muteins to human (Creative Biomart), cynomolgus, rat (R&D Systems) and mouse CTGF (Abbexa) was determined by SPR using a Biacore instrument (Cytiva, formerly GE Healthcare). Some targets were fused to a human IgG1 Fc tag, and captured via the anti-human IgG antibody kit, others were directly immobilized.
(§4) For some measurements, human CTGF with a human IgG1 Fc Tag or rat or murine CTGF without a tag were directly immobilized to a CM5 Chip. The carboxyl groups on the chip were activated using 1-ethyl-3-(3-dimethylaminopropyl)-carbodiimide (EDC) and N-hydroxysuccinimide (NHS). Subsequently, the targets at a concentration of 3-5 μg/mL in 10 mM sodium acetate (pH) 4.5 were applied at a flow rate of 10 μL/min until an immobilization level of 300-1100 resonance units was achieved. Residual non-reacted NHS-esters were blocked by passing a solution of 1 M ethanolamine across the surface. The reference channel was activated/deactivated. For the capture setting, targets with an IgG Fc Tag at 0.25-2.5 μg/mL in HBS-EP+ buffer were captured by the anti-human IgG-Fc antibody at the chip surface for 180 s at a flow rate of 10 μL/min.
(§5) The binding assay was carried out with a contact time of 180 s, a dissociation time of 900-3600 s and a flow rate of 30 μL/min. All measurements were performed at 25° C. […] For the directly immobilized targets, the same regeneration conditions were used. Prior to the protein measurements, three startup cycles were performed for conditioning purposes. Data were evaluated with Biacore Evaluation software. Double referencing was used and the 1:1 binding model was used to fit the raw data.
(§6) The values determined for kon, koff and the resulting equilibrium dissociation constant (KD) for exemplary lipocalin muteins are summarized in Table 4.

The next data set deals with T3, Murine CTGF (Mus musculus, UniProt P29268).
T3 construct: purchased Abbexa
T3 sequence (P29268 26-348): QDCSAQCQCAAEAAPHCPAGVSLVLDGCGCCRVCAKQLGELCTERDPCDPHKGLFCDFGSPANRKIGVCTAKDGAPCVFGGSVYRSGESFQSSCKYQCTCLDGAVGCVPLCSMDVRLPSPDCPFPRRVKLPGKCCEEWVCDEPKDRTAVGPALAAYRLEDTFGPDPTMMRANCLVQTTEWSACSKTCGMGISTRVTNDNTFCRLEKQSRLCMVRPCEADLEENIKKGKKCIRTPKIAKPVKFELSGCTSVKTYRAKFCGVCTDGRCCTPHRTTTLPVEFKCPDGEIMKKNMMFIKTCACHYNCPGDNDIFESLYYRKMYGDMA
The data set can be described thus: SPR binding kinetics and affinity, murine CTGF. Conditions: 25° C., 1:1 binding model. An outline of the steps:
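Targets either amine-coupled to CM5 chip (300–1100 RU; Fc-tagged human, untagged rat/murine) or Fc-captured via anti-human IgG; muteins injected 180 s contact, 900–3600 s dissociation, 30 μL/min, 25° C. Double-referenced sensorgrams fit to 1:1 model giving kon, koff and KD.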

In a further data set the target is T4, Rat CTGF (Rattus norvegicus, UniProt Q9R1E9).
T4 construct: purchased R&D Systems
T4 sequence (Q9R1E9 25-347): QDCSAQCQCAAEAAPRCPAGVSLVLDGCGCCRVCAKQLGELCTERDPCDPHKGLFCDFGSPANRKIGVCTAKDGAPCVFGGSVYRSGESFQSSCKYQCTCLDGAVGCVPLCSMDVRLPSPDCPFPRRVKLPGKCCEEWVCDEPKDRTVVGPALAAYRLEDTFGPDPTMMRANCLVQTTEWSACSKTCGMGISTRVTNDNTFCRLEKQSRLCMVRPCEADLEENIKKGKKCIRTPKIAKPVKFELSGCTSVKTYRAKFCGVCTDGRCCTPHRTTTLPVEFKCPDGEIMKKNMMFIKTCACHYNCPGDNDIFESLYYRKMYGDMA
The data set can be described thus: SPR binding kinetics and affinity, rat CTGF. Conditions: 25° C., 1:1 binding model. Here is the method: as §2, §3, §4, §5, §6

Data set [4] relates to bleomycin-induced lung fibrosis. The experiment in a line: Bleomycin mouse model of lung fibrosis. Type of data set: in vivo. Conditions: day 14 after bleomycin. The procedure:
The anti-fibrotic activity of lipocalin muteins upon local delivery to the lung was evaluated in vivo using a mouse model of bleomycin-induced lung fibrosis. Bleomycin is a DNA damaging agent, also used in cancer therapy, which induces a severe damage of the lung epithelium upon delivery to the lungs of rodents. The injury causes a strong inflammatory response in the lungs which in turn triggers fibrotic response. The peak of fibrotic remodeling, usually observed between day 14 and 21 after bleomycin challenge, is characterized by an excessive deposition of extracellular matrix and destruction of alveolar lung structures. Here, approximately 9 weeks old, male C57BL/6N mice were challenged with bleomycin at a dose of 1 mg/kg or saline as a control via the intranasal route. Animals were treated daily with lipocalin muteins at a dose of 5 mg/kg or PBS as a vehicle control via local delivery to the lungs from day 0 to day 13 after bleomycin challenge. […] Animals were sacrificed at day 14 after bleomycin challenge and level of lung fibrosis was analyzed in formalin fixed, paraffin embedded lung tissues by histopathological evaluation using the Ashcroft score (Matsuse modification) and quantitative digital analysis of IHC detected Collagen1a1 protein deposition.
For determination of the Ashcroft score lung tissue slides were stained according to the Crossman's Trichrome method (Gray, Peter (1954) The Microtomist's Formulary and Guide. Blakiston, New York, 1954). The whole pulmonary area subjected for histopathological analysis was evaluated at ten low magnification fields and total score for each animal was calculated as a mean (Ashcroft et al., Journal of clinical pathology 41.4 (1988): 467-470; Matsuse, T., et al. European Respiratory Journal 13.1 (1999): 71-77.). […]
Collagen1a1 (Col1a1) deposition was analyzed by immunohistochemistry as a second measure for fibrotic lung remodeling. […] Stained tissue slides were evaluated for Col1a1 deposition by digital image analysis using the morphometry protocol (CaloPix software, TRIBVN). […]

The mark [5] stands for this setting: mutein 5 mg/kg daily to lung, antibody 10 mg/kg every other day intravenous.

cynomolgus CTGF, sequence (as listed by the source): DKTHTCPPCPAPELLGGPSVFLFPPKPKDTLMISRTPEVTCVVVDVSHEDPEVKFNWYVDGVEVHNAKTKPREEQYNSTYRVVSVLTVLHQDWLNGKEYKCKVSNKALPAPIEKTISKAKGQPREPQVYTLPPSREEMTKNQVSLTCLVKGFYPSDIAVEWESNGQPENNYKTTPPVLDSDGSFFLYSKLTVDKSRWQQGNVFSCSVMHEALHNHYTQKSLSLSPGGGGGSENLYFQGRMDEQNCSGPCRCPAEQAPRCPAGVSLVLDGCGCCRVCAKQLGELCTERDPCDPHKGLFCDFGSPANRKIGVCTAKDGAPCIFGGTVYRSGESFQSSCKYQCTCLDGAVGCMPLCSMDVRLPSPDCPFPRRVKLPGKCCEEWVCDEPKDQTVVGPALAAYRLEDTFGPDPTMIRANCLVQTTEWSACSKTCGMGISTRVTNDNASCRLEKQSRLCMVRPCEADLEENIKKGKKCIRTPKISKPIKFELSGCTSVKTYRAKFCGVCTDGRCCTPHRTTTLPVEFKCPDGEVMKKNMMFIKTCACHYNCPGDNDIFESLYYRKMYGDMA
T2 sequence (P29279 with tags, fused parts or gaps H83D): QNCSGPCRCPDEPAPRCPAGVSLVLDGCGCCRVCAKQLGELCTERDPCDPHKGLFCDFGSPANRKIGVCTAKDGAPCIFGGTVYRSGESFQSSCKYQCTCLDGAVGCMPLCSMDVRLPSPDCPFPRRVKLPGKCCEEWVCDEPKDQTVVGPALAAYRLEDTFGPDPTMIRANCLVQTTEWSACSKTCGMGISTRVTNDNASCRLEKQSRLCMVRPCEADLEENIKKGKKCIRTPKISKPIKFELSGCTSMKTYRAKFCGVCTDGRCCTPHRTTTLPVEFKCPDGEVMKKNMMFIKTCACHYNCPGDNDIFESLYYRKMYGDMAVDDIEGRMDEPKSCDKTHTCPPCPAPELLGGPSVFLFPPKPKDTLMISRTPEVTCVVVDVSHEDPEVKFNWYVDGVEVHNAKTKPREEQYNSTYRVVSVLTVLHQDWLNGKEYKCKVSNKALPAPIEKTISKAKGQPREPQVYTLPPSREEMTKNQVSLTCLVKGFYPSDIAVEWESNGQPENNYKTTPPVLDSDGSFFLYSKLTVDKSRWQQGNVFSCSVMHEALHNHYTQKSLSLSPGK
T1 sequence (P29279 with tags, fused parts or gaps H83D): as above

B1: SEQ ID NO: 24: optimized CTGF-binding hNGAL lipocalin mutein (protein)
chain: QDSTSDLIPAPPLSKVPLQQNFQDNQFQGKWYVVGVAGNAILRTDKQPAKMFATIYELKEDKSYDVTSVRFEAKSCKYTIKTFVPGSQPGEFTAGNIKSAPGQTSTLVRVVSTNYNQHAMVFFKHVSQNREIFVITLYGRTKELTSELKENFIRFSKSLGLPENHIVFPVPIDQCIDG
modifications: lipocalin mutein
For B1, the “ONSET MELTING” value in data set [1] came to 58 °C. The TM in data set [1] (major transition) came to 72 °C. In the data set with human CTGF [2], the “human CTGF koff” value stood at 1.41e-05 s⁻¹. For the same molecule, the “human CTGF kon” value in the data set with human CTGF [3] came to 157000 M⁻¹ s⁻¹. Also, in the data set on cynomolgus CTGF, the “cynomolgus CTGF koff” value worked out at 2.63e-05 s⁻¹ and the “cynomolgus CTGF kon” value worked out at 195000 M⁻¹ s⁻¹. For the same molecule, in the data set with Murine CTGF, the “Murine CTGF koff” value was 1.16e-05 s⁻¹ and the “Murine CTGF kon” value worked out at 299000 M⁻¹ s⁻¹. In the data set with Rat CTGF, the “Rat CTGF koff” value turned out to be 3.51e-05 s⁻¹ and the “Rat CTGF kon” value worked out at 138000 M⁻¹ s⁻¹. The “Reduction of Ashcroft score vs mean of vehicle-treated animals” value in data set [4] (mutein 5 mg/kg daily local lung delivery day 0-13) worked out at 14.1%. In data set [4] (setting [5]), the “Effect on Ashcroft score” value is on record as “significantly decreased the Ashcroft score” and the “Reduction of Col1a1 positive lung surface area vs mean of vehicle controls” value is given as 25.2%.
